Source: article PMC11880434 (Nature Communications, 2025)

Tests used:
MbpR = molecular target: T1, MbpR (Lactiplantibacillus plantarum, UniProt F9USQ8); assay: ITC; assay type: binding
T1 sequence (F9USQ8 1-306): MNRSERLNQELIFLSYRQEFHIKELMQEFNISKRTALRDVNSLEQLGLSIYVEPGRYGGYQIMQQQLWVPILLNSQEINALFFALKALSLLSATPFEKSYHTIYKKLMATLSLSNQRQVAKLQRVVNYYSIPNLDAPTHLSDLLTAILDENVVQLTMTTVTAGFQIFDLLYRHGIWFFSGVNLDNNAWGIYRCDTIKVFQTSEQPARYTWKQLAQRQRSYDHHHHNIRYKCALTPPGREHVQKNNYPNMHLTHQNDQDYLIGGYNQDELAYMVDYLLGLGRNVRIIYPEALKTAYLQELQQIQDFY

[1] = molecular target: mucin binding domain of MbpA (L. plantarum WCFS1); assay: MST
[2] = molecular target: mucin binding domain of MbpB (L. plantarum WCFS1); assay: MST

Question: Which Kd (MbpR) does the source give for `Nc1nc2c(ncn2[C@@H]2O[C@@H]3CO[P@](=O)(O)O[C@H]4[C@@H](O)[C@H](n5cnc6c(=O)[nH]c(N)nc65)O[C@@H]4CO[P@](=O)(O)O[C@H]3[C@H]2O)c(=O)[nH]1` [c-di-GMP] here?
Answer: 220 nM

Question: With mucin (natural protein) as the compound, how does the Kd [1] read?
Answer: 530 nM

Question: And the Kd [2]?
Answer: 690 nM
